Laboratory results taken from patent US10139419B2, “Methods for detecting Aβ oligomers” (SYSTEM OF SYSTEMS ANALYTICS, INC., priority 2014, dated 2018).
Bridge positions count the residues as written; N and C are the ends. Square brackets hold non-standard residues; d marks the D form. Ends that are not written are not given here. * marks the point of attachment. FITC = O=C1OC2(c3ccc(O)cc3Oc3cc(O)ccc32)c2ccc(NC(=S)*)cc21; Ahx = NCCCCCC(=O)O

Experiments:
synthetic Aβ oligomer = target: T1, synthetic Aβ oligomer (Homo sapiens, UniProt P05067); experiment: Fluorescence detection assay of synthetic Aβ oligomer spiked into human CSF; format: binding; settings: 10 mM HEPES pH 7.0; 0.005% NP-40; 10% normal human cerebrospinal fluid; 70 nM pyrenated peptide; 37° C.
T1 construct: The monomers can comprise one or more of Aβ3-42, Aβ37, Aβ38, Aβ39, Aβ40 and Aβ42; host or cells: synthetic peptide oligomer
T1 sequence (P05067 672-713 limits assumed): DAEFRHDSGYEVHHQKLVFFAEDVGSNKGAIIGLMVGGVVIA
Procedure: Samples of CSF from a normal human subject are spiked with different concentrations of synthetic Aβ oligomer, and subjected to fluorescence detection assay using peptide probe AD315 (SEQ ID NO:65). The detection is performed in an assay with the following conditions: 10 mM HEPES buffer at pH 7.0; 0.005% NP-40; 10% normal human cerebrospinal fluid; 70 nM pyrenated peptide; and 37° C. incubation.

Aβ42 oligomer [1] = target: T2, Aβ42 oligomer (Homo sapiens, UniProt P05067); experiment: Fluorescent anisotropy versus Aβ42 oligomer concentration; format: binding
T2 sequence (P05067 672-713 limits assumed): as above

Aβ42 oligomer [2] = target: T2, Aβ42 oligomer; experiment: Streptavidin bead binding assay with gel electrophoresis detection; settings: column 4
Procedure: An assay is performed to analyze peptide probe binding to Aβ42 oligomer. The peptide probe is the same as the probe in EXAMPLE 8. Five samples are analyzed: (1) Aβ42 biotinylated oligomer as a positive control; (2) Aβ42 biotinylated oligomer bound to a bead via streptavidin; (3) peptide positive control; (4) peptide probe bound to Aβ42 biotinylated oligomer bound to a bead via streptavidin; and (5) peptide probe bound to a bead via streptavidin. Detection was by gel electrophoresis.

Aβ oligomer [3] = target: T3, Aβ oligomer (Homo sapiens, UniProt P05067); experiment: PLISA using PEP-11 peptide probes on Aβ monomer, oligomer and fiber; format: binding
T3 sequence (P05067 672-713 limits assumed): as above
Source text: PEP-11ds is also represented by SEQ ID NO:64, but has a disulfide bridge at the two cysteines.

Aβ oligomer [4] = target: T3, Aβ oligomer; experiment: Peptide Linked Immunosorbent Assay (PLISA) compared with ELISA; format: binding; settings: ELISA with Aβ antibody 6E10 labeled with horse radish peroxidase
Source text: FIG. 7 depicts different formats for a PLISA as described herein. PLISA (A) depicts a sandwich format in which a target oligomer, such as an Aβ oligomer (SDS Oligo), binds to both surface-bound peptide probe (peptide) and peptide probe tagged with a label (Tag). The complex is detected using a labeled antibody (Anti-TagAb-label). PLISA (B) depicts a sandwich format in which the peptide probe tagged with a label is replaced by a labeled antibody (Ab-label) specific to the Aβ oligomer. PLISA (C) depicts a sandwich format in which the surface-bound peptide probe is replaced with an antibody specific to the Aβ oligomer (Ab-6E10). PLISA (D) depicts a competitive format in which Aβ oligomer in a biological sample competes with surface-bound Aβ oligomer for a labeled peptide probe. Each of PLISA (A)-(D) can use a solid-phase format (shown here as a bead, in which the bead is passed through an apparatus for detecting the labels).
Different concentrations of Aβ oligomer in solution are subjected to both PLISA and ELISA to determine the sensitivity of each assay, as measured by dose response curves. For the PLISA assay, the peptide probe used is AD317 (SEQ ID NO:41). For the ELSIA, the antibody used is Aβ antibody 6E10 labeled with horse radish peroxidase. […]

## AD315: Salt bridge at G29H and G33E; PBA and NH2 additions; pyrenated peptide (KLVFFAEDVGSNKHAIIELMK-NH2; not fully specified (N-terminus); also: PBA addition, pyrene label)
Synthetic Aβ oligomer
  fluorescence response to synthetic Aβ oligomer concentration: linear, dose-dependent curve
Aβ42 oligomer [1]
  fluorescent anisotropy (milli-r) as a function of Aβ42 oligomer concentration (nN): decreases as oligomer concentration increases
Aβ42 oligomer [2]
  binding of peptide probe to bead-bound Aβ42 biotinylated oligomer: can be used to detect Aβ42 oligomer

## Pep11-a: consists of SEQ ID NO:64, at a purity of 86% (standard) ({FITC}-[Ahx]CLVFFAEDVGSNKGAIIGLMC[dR][dR]; not fully specified; cysteine pairing not given here)
Aβ oligomer [3]
  preferential detection/binding of Aβ oligomer as compared to Aβ monomer or fiber: preferentially detect Aβ oligomer

## Pep11-b: consists of SEQ ID NO:64, at a purity of 95% (high) ({FITC}-[Ahx]CLVFFAEDVGSNKGAIIGLMC[dR][dR]; not fully specified; cysteine pairing not given here)
Aβ oligomer [3]
  preferential detection/binding of Aβ oligomer as compared to Aβ monomer or fiber: preferentially detect Aβ oligomer

## AD317: P22, biotin labeled with thrombin site linker, at C-terminus (KLVFFAEDVGSNKHAIIELMKGLVPRGSGK; not fully specified (residue 30, C-terminus); also: biotin label at C-terminus via thrombin site linker, attachment place not given here)
Aβ oligomer [4]
  sensitivity for detecting Aβ oligomer, PLISA vs ELISA (dose response curves): more sensitive assay for detecting Aβ oligomer than the ELISA

## Pep11-ds: represented by SEQ ID NO:64, but has a disulfide bridge at the two cysteines ({FITC}-[Ahx]CLVFFAEDVGSNKGAIIGLMC[dR][dR]; disulfide 2-22; not fully specified)
Aβ oligomer [3]
  preferential detection/binding of Aβ oligomer as compared to Aβ monomer or fiber: preferentially detect Aβ oligomer
